# Measurements taken from patent US20020045192A1, “Arf and HDM2 interaction domains and methods of use thereof” (St. Jude Children's Research Hospital, priority 2001, published 2002).
# Entries after “also recorded” stand apart in the source; their conditions may differ.
# Columns and labels:
# [1] = target: T1, mArfN37 (Mus musculus, UniProt Q64364); assay: SPR binding of Hdm2 constructs and Hdm2 peptides to immobilized His-tagged mArfN37
# T1 construct: An N-terminal fragment of mouse p19^Arf corresponding to residues 1-37 (mArfN37) was purified in a similar manner; made in house
# T1 sequence (Q64364 1-37 limits assumed): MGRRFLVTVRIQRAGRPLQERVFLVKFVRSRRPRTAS
# Description: Binding studies were performed using a Biacore 3000 surface plasmon resonance (SPR) instrument (Biacore, Inc.). A Tetra-His™ Antibody (Qiagen, Inc.; Cat. #34670) was covalently attached to a carboxymethylated gold surface (C-1 chip; Biacore, Inc.). The carboxymethyl groups on the surface were activated with N-ethyl-N′-(3-dimethylaminopropyl) carbodiimide (EDC) and N-hydroxysuccinimide (NHS) and the antibody was attached at pH 7.4 in 20 mM sodium phosphate buffer, 150 mM NaCl (PBS). Reactive sites remaining on the surface were blocked by reaction with ethanolamine. […] Binding was measured by flowing the non-His-tagged analyte through the reference and ligand-containing flow cells in sequence. […] Changes in the SPR response due to solvent differences and the injection process were monitored by injection of HBS-N buffer alone. […]
# It has been previously shown that a fragment of mouse p19^Arf containing the N-terminal 37 amino acids (mArfN37) can (i) bind Hdm2, (ii) cause the relocalization of Hdm2 to nucleoli, and (iii) induce cell cycle arrest in MEFs [see, U.S. patent application Ser. No. 09/480,718, Filed Jan. […] However, because mArfN37 is a relatively small polypeptide, it was determined whether it could bind a correspondingly small segment of Hdm2. […]
# [2] = target: T2, GFP-p19^Arf (Mus musculus, UniProt Q64364); assay: Nuclear microinjection and live cell imaging of Texas Red labeled Hdm2 constructs in NIH 3T3 cells lacking Arf; format: cell-based; details: NIH 3T3 Arf-/- cells, nuclear microinjection
# T2 construct: expressed in transfected cells; host or cells: NIH 3T3 Arf-/- cells
# T2 sequence (Q64364 1-169): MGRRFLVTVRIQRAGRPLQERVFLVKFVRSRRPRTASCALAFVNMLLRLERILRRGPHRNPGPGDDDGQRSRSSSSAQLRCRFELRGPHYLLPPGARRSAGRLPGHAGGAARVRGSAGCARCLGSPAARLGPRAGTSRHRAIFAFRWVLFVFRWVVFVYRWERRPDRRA
# Description: Proteins for fluorescence microimaging studies were covalently modified using an amine-reactive, sulfosuccinimidyl ester of Texas Red™ (Molecular Probes, Inc., Cat. # C-1171). In brief, purified Hdm2-derived proteins were dialyzed into 100 mM sodium bicarbonate buffer, pH 8.3 at 2-4 mg/ml. The Texas Red™ dye was dissolved in dimethylsulfoxide at 10 mg/ml. Protein and dye 3:1 (vol:vol) were reacted for 1 hour at room temperature followed by purification using size-exclusion chromatography (NAP 5 G-25 columns, Amersham Pharmacia Biotech, Inc.). Labeled protein bands migrated more slowly than unlabeled protein in SDS-polyacrylamide gels consistent with the covalent attachment of dye.
# NIH 3T3 Arf^−/− cells passage 10-15 were cultured in Dulbecco's modified Eagle's medium (Dulbecco's modified Eagle's medium (DMEM); Gibco-Invitrogen, Inc.), 10% fetal bovine serum (FBS) at 37° C., 7% CO2. 24 hours prior to transfection, cells were plated on 35 mm dishes coated with poly-D-Lysine (Mattek, Corp.) at a density of 3×10^4 cells per dish. Cells were transfected with a pcDNA plasmid (Invitrogen) containing the GFP-p19^ARF fusion protein using Fugene-6 (Roche Molecular Biochemicals, Inc.) in media according to the protocol supplied by the manufacturer. Sixteen hours post-transfection, the transfection media was refreshed with DMEM, 10% FBS and the cells were allowed to recover for four hours. […] An Axiovert 135 TV inverted fluorescence microscope with an automated stage controller (Carl Zeiss, Inc.) and circulating water bath heater (Fisher) was used for both microinjection and imaging. […]
# Hdm2 deletion constructs tagged with a fluorescent label (Texas Red™) were microinjected into the nucleus of NIH 3T3 cells. importantly, the NIH 3T3 cell line used lacks the gene for Arf. […] A covalently bound fluorescent label was used to detect Hdm2 fragments instead of immuno fluorescence to avoid nonspecific background staining and staining variability due to differential antibody reactivity. […]
# [3] = target: T3, Hdm2 210-304 (Homo sapiens, UniProt Q00987); assay: CD-based binding assay, β-strand formation with Hdm2 210-304
# T3 construct: poly-His (thrombin-cleavable, from pET28a) (cleaved yes); made in house; host or cells: E. coli BL21 (DE3)
# T3 sequence (Q00987 210-304): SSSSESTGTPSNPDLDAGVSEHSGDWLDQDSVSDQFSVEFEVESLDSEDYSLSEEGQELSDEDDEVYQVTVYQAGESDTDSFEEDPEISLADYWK
# Description: (§1) Spectra were recorded at 25° C. using an Aviv Model 62A DS circular dichroism spectropolarimeter (Aviv Instruments, Inc.) equipped with a thermoelectric temperature control unit. All samples were prepared in 10 mM Tris-HCl, pH 7.0 at 0.02-0.2 mM as determined by amino acid analysis. Spectra were recorded using 1 mm quartz cuveftes and reported spectra are the average of 10 scans over the range […]. Melting experiments were recorded in 10 mm quartz cuvettes with active stirring. The signal at 216 nm (β strand minimum) was used to monitor structural changes and the signal was averaged over 15 sec. The sample temperature was increased in 1° C. steps.
# (§2) As discussed above, the addition of mArfN37 to Hdm2 210-304 results in the formation of supramolecular assemblies comprised of β-strands. Stepwise addition of sub-stoichiometric amounts of mArfN37 to Hdm2 210-304 increased β-strand secondary structure content as judged by the change in ellipticity at 200 nm using CD. […] The binding of mArfN37 to Hdm2 210-304, as monitored in this way, is saturable. Similar results were obtained when mArfN37 was mixed with the shorter fragment of Hdm2, Hdm2 210-275. Further, saturable binding is also observed when the Hdm2 fragments were added to an excess of mArfN37. These findings indicate that there are a limited number of binding sites for mArfN37 within Hdm2 210-304 and that discreet structures (containing β-strands) form when mArfN37 and Hdm2 210-304 (or 210-275) are mixed. […] Similar behavior is observed when mArfN37 binds Hdm2 210-275.
# To investigate the roles of individual Arf motifs (A1 and A2) and Arf-binding segments of Hdm2 (H1 and H2) in the interactions between Arf and Hdm2 the binding of peptides containing these small segments (A1, A2, H1, or H2) to larger protein fragments of the corresponding binding partner (mArfN37 or Hdm2 210-304) were monitored using the CD-based binding assay. […] Peptides from the Hdm2 library that were positive for mArfN37 binding on the basis of SPR (i.e. those within H1 and H2) were mixed with mArfN37 and binding was monitored in the same manner. Three peptides from the H1 segment and one from the H2 segment of Hdm2 induce β-strand secondary structure when mixed with mArfN37 (FIG. 2c). These experiments indicate that peptides containing A1, A2, H1 or H2 can interact with larger fragments of the target protein and that the interactions also occur through the formation of β-sheet secondary structure. […] Importantly, however, further reduction in the size of the interacting species led to a loss of Arf/Hdm2 binding as judged by a failure to induce structure in CD titration experiments. […] Similarly, while peptides derived from the H1 or H2 segments of Hdm2 bind mArfN37, they fail to bind peptides derived from the A1 or A2 segments of mouse or human Arf. Furthermore, mixtures of two, three, or four different peptides that contain the important binding segments (A1, A2, H1, and H2) fail to interact, in contrast to the results obtained when A1 and A2, or H1 and H2, are covalent linked in larger protein fragments. Apparently, cooperative interactions between covalently linked binding segments from one protein (A1 and A2 of Arf, or H1 and H2 of Hdm2) are minimally required for Arf/Hdm2 interactions.
# [4] = target: T4, Hdm2 210-275 (Homo sapiens, UniProt Q00987); assay: CD-based binding assay, β-strand formation with Hdm2 210-275
# T4 construct: poly-His (thrombin-cleavable, from pET28a) (cleaved yes); made in house; host or cells: E. coli BL21 (DE3)
# T4 sequence (Q00987 210-275): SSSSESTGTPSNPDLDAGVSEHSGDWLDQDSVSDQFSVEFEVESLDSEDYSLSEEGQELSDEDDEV
# Description: as §1, §2
induction of β-strand assembly when mixed with Hdm2 210-275 (CD) [4],Substance,induction of β-strand secondary structure when mixed with Hdm2 210-304 (CD) [3],other results
,Hdm2 210-304: Fragment of Hdm2 corresponding to residues 210-304 of SEQ ID NO:8,,binding to His-tagged mArfN37 immobilized on the SPR biosensor surface ([1]; His-mArfN37 captured by covalently linked His antibody): bind tightly; localization of Texas Red labeled Hdm2 construct in cells that did not express Arf [2]: evenly dispersed in the nucleoplasm; localization of Texas Red labeled Hdm2 construct when GFP-p19^Arf is expressed [2]: co-localized within nucleoli; also recorded: nucleolar localization
fail to induce β-strand assembly,"mouse A2 (16-30): Peptide corresponding to the mouse Arf motif A2, residues 16-30 (RPLQERVFLVKFVRS)",induce the transition from random conformations to β-strand secondary structure,
interaction,"human A1 (1-14): Peptide containing the human Arf motif A1, residues 1-14 (MVRRFLVTLRIRRA)",produce the random-to-β-strand structure transition,
,Hdm2 277-491: Texas Red labeled Hdm2 deletion construct containing residues 277-491,,localization of Texas Red labeled Hdm2 construct when GFP-p19^Arf is expressed [2]: nucleolar localization
fail to induce β-strand assembly,"human A2 (16-30): Peptide containing the human Arf motif A2, residues 16-30 (GPPRVRVFVVHIPRL)",produce the random-to-β-strand structure transition,
,residues 290-304 of SEQ ID NO:8: short synthetic Hdm2 peptide containing residues 290-304 of SEQ ID NO:8 (SFEEDPEISLADYWK; listed as Homo sapiens),,"relative binding affinity for mArfN37 (SPR) ([1]; short synthetic Hdm2 peptides, 15 amino acids): modest affinity"
interaction,"mouse A1 (1-14): Peptide corresponding to the mouse Arf motif A1, residues 1-14 (MGRRFLVTVRIQRA)",induce the transition from random conformations to β-strand secondary structure,

Substance,induction of β-strand assembly when mixed with Hdm2 210-275 (CD) [4],induction of β-strand secondary structure when mixed with Hdm2 210-304 (CD) [3],other results
mArfN37: N-terminal fragment of mouse p19^Arf corresponding to residues 1-37 (MGRRFLVTVRIQRAGRPLQERVFLVKFVRSRRPRTAS),striking transition from random conformations to β-strand secondary structure,striking transition from random conformations to β-strand secondary structure,
